# Legend:
# [1] = target: mucin domain-deleted Sudan GP (GPdMuc) (Sudan virus (SUDV)) (UniProt Q7T9D9); assay: BLI competition on Sudan GPdMuc (column in both tables); competitor 16F6
# [2] = target: mucin domain-deleted Sudan GP (GPdMuc) (Sudan virus (SUDV)) (UniProt Q7T9D9); assay: BLI competition on Sudan GPdMuc; competitor 16F6
# [3] = target: mucin domain-deleted Sudan GP (GPdMuc) (Sudan virus (SUDV)) (UniProt Q7T9D9); assay: BLI competition on Sudan GPdMuc (column in both tables); competitor 316L
# [4] = target: mucin domain-deleted Sudan GP (GPdMuc) (Sudan virus (SUDV)) (UniProt Q7T9D9); assay: BLI competition on Sudan GPdMuc; competitor 316L
# [5] = target: mucin domain-deleted Sudan GP (GPdMuc) (Sudan virus (SUDV)) (UniProt Q7T9D9); assay: BLI competition on Sudan GPdMuc (column in both tables); competitor 15H10
# [6] = target: mucin domain-deleted Sudan GP (GPdMuc) (Sudan virus (SUDV)) (UniProt Q7T9D9); assay: BLI competition on Sudan GPdMuc (column in both tables); competitor mAb166
# [7] = target: mucin domain-deleted Sudan GP (GPdMuc) (Sudan virus (SUDV)) (UniProt Q7T9D9); assay: BLI competition on Sudan GPdMuc; competitor 15H10
# [8] = target: mucin domain-deleted Sudan GP (GPdMuc) (Sudan virus (SUDV)) (UniProt Q7T9D9); assay: BLI competition on Sudan GPdMuc; competitor mAb166
# [9] = target: mucin domain-deleted Zaire GP (GPdMuc) (Ebola (Zaire) virus (EBOV)) (UniProt Q05320); assay: BLI competition on Zaire GPdMuc (upper table); competitor 316L
# [10] = target: mucin domain-deleted Zaire GP (GPdMuc) (Ebola (Zaire) virus (EBOV)) (UniProt Q05320); assay: BLI competition on Zaire GPdMuc (upper table); competitor mAb114
# [11] = target: mucin domain-deleted Zaire GP (GPdMuc) (Ebola (Zaire) virus (EBOV)) (UniProt Q05320); assay: BLI competition on Zaire GPdMuc (upper table); competitor 13C6
# [12] = target: mucin domain-deleted Zaire GP (GPdMuc) (Ebola (Zaire) virus (EBOV)) (UniProt Q05320); assay: BLI competition on Zaire GPdMuc (upper table); competitor KZ52 (self)
# [13] = target: mucin domain-deleted Zaire GP (GPdMuc) (Ebola (Zaire) virus (EBOV)) (UniProt Q05320); assay: BLI competition on Zaire GPdMuc (upper table); competitor 380L
# [14] = target: mucin domain-deleted Zaire GP (GPdMuc) (Ebola (Zaire) virus (EBOV)) (UniProt Q05320); assay: BLI competition on Zaire GPdMuc (upper table); competitor 15H10
Substance,% inhibition of binding [1] [%],% inhibition of binding [2] [%],% inhibition of binding [3] [%],% inhibition of binding [4] [%],% inhibition of binding [5] [%],% inhibition of binding [6] [%],% inhibition of binding [7] [%],% inhibition of binding [8] [%],% inhibition of binding [9] [%],% inhibition of binding [10] [%],% inhibition of binding [11] [%],% inhibition of binding [12] [%],% inhibition of binding [13] [%],% inhibition of binding [14] [%]
HIV-specific antibody VRC01,-7.53,31,20.6,29.9,-333,-82.7,-296,-43.1,–,–,–,–,–,–
KZ52 (antibody),–,–,–,–,–,–,–,–,8,9,13,96,10,-1
